Data on 11 compounds can be found in PMC4843846, “Towards “bionic” proteins: replacement of continuous sequences from HIF-1α with proteomimetics to create functional p300 binding HIF-1α mimics” (Chemical Communications (Cambridge, England), 2016).

For test [1], the target named is T1, HIF-1α/p300 interaction (Homo sapiens, UniProt Q09472).
T1 construct: made in house
More on the design: method as in 2 sources, ref 33 = [33]; PMID 24782431; doi:10.1002/cbic.201400009; Burslem G. M. Kyle H. F. Breeze A. L. Edwards T. A. Nelson A. Warriner S. L. Wilson A. J. ChemBioChem 2014 15 1083 1087 24782431 10.1002/cbic.201400009 PMC4159589 ||| ref 32 = [32]; PMID 26135796; doi:10.1039/c5mb00284b; Kyle H. F. Wickson K. F. Stott J. Burslem G. M. Breeze A. L. Tiede C. Tomlinson D. C. Warriner S. L. Nelson A. Wilson A. J. Edwards T. A. Mol. BioSyst. 2015 11 2738 2749 26135796 10.1039/c5mb00284b. To be noted: fluorescence anisotropy competition; prior truncation studies; read-out: IC50, inhibition of the HIF-1α/p300 interaction by HIF-1α peptides; cited from earlier work. In general terms: In fluorescence polarisation assays a small probe gives low polarisation when free and higher when bound to something large.

The target in test [2] is T2, p300 (Homo sapiens, UniProt Q09472). More on the design: made in house. The conditions noted are these: fluorescence anisotropy direct binding; cited from earlier work. The source says:
A requirement for optimal linker length is supported by the fact that as the length of the PEG linker in 3a–c increases, so does binding affinity. In spite of the weaker binding affinities observed for 3a–c, the weak binding for HIF794–804 (helix 2) and HIF816– ...
Target sequence in this assay (Q09472 whole entry, species assumed): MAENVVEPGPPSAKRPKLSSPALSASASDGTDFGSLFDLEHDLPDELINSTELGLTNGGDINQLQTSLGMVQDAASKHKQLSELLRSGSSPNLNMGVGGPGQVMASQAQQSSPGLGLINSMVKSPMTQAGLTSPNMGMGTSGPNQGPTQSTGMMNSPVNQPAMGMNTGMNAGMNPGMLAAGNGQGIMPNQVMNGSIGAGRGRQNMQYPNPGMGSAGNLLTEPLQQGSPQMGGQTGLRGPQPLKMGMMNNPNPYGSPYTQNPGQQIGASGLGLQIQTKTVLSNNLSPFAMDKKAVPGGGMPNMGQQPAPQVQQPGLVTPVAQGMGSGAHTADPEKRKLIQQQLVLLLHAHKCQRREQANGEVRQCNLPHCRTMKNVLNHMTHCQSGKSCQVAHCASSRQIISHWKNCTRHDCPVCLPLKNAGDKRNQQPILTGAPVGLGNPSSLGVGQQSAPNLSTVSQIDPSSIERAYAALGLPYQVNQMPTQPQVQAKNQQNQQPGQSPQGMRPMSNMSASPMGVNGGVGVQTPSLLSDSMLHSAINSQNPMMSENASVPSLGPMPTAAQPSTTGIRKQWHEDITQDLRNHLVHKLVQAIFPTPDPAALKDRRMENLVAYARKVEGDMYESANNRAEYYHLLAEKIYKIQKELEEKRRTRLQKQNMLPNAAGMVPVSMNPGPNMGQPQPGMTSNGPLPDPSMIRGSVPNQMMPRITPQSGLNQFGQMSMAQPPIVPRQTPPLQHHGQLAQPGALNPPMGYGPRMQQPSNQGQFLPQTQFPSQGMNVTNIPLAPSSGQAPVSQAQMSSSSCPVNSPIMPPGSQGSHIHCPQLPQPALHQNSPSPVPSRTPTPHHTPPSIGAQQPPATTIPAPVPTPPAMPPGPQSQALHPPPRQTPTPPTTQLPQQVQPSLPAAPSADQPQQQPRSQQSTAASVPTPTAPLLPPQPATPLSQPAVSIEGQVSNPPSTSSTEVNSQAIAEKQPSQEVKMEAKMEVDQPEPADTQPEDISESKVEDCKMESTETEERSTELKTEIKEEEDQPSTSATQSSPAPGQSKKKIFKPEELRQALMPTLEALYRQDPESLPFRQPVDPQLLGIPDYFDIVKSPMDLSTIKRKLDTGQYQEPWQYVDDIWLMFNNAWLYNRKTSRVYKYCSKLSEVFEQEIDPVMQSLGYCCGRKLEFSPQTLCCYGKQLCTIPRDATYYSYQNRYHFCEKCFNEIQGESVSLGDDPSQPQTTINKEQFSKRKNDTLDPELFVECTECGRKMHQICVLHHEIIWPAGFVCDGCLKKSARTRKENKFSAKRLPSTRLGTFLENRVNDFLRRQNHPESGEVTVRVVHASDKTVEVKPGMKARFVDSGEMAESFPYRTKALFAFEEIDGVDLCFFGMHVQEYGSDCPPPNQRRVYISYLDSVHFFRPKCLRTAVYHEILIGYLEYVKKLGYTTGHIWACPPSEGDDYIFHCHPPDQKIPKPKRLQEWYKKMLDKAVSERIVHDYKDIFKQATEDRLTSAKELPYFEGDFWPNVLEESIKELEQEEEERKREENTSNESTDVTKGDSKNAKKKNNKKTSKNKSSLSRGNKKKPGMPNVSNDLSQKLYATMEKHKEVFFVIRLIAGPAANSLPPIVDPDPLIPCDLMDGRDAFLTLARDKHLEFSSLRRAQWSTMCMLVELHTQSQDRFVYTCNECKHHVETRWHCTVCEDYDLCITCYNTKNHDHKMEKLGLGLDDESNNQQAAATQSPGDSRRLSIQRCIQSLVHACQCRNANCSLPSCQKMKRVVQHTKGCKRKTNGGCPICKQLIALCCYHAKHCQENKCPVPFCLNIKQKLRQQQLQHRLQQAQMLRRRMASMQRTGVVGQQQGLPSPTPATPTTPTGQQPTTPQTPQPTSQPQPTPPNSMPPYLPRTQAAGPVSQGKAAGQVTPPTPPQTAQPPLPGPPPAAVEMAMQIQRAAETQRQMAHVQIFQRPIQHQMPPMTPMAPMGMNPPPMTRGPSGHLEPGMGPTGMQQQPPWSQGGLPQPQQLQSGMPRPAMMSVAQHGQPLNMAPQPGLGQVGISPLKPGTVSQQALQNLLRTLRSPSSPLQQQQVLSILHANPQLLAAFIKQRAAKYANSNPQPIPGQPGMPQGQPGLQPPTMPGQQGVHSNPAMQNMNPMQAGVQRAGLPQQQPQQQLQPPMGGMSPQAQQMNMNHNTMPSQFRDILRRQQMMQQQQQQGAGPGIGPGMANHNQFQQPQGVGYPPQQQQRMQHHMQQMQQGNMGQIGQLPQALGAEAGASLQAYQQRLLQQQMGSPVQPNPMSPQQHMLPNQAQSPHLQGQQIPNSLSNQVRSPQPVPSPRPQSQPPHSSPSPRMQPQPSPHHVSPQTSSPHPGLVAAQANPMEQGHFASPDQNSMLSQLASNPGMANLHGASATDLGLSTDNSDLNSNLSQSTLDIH

For test [3], the target named is T2, p300. Briefly: fluorescence anisotropy competition. To be noted: cited from earlier work.
Target sequence in this assay (Q09472 2-2414): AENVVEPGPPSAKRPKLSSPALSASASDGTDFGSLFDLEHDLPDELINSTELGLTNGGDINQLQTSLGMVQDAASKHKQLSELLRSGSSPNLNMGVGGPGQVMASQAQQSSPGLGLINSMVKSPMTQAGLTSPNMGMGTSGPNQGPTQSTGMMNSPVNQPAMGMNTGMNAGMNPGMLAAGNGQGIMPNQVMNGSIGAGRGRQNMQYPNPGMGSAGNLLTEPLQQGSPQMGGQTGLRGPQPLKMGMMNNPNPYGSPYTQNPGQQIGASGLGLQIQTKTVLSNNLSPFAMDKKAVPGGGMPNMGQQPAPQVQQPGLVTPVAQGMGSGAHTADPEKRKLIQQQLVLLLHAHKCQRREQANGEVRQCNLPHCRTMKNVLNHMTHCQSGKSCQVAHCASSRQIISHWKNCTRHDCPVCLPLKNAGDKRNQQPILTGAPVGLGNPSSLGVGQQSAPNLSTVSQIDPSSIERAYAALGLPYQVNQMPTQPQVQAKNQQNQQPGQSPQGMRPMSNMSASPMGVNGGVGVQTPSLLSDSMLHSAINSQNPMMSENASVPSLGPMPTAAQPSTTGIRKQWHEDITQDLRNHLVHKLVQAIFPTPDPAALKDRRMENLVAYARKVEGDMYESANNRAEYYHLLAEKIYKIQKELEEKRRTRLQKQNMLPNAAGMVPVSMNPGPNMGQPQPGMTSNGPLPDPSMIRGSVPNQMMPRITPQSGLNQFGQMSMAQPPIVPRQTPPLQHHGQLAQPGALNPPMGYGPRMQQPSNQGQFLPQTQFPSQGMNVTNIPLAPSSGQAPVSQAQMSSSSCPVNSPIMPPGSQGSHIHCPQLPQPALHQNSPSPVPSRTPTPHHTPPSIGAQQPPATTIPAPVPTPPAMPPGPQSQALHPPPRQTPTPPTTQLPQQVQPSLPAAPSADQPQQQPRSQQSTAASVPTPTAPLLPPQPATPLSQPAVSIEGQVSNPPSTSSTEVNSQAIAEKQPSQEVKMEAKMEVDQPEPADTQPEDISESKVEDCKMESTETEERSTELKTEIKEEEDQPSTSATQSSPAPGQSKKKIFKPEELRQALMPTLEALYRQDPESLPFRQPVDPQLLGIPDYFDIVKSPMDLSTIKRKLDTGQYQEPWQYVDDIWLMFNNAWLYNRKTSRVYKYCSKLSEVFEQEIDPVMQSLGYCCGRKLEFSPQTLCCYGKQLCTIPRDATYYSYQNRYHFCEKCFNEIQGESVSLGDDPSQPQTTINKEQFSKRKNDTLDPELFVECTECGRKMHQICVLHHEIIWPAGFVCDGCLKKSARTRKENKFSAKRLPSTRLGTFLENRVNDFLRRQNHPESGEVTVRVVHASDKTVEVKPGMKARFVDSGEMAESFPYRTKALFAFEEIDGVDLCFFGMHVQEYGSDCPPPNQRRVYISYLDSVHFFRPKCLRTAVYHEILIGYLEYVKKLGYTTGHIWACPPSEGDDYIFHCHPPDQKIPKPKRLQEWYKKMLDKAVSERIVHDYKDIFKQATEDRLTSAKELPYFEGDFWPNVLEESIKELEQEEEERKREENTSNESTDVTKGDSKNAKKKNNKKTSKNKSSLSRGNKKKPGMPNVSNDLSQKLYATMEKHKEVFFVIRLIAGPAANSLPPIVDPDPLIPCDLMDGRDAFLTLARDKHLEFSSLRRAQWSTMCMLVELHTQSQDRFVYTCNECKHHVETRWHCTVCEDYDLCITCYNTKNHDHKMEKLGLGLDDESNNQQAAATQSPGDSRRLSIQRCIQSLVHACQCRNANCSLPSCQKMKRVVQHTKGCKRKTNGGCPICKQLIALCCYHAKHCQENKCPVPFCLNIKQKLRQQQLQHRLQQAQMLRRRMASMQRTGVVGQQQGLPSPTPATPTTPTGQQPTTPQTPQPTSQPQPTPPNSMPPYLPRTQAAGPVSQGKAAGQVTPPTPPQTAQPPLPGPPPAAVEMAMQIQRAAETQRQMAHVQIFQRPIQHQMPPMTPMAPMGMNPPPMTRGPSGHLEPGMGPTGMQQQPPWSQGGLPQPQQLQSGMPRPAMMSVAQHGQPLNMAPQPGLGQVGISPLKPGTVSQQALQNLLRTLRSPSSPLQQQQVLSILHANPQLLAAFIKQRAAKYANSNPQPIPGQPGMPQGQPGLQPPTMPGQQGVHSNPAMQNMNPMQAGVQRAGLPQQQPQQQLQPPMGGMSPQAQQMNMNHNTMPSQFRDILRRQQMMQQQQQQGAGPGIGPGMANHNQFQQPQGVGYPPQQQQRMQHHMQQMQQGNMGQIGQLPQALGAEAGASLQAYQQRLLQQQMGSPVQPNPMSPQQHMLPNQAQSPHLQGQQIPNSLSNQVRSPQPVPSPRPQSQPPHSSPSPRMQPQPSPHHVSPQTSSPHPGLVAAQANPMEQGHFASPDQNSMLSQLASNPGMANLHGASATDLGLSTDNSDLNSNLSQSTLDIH
The test system of test [4] is p53/hDM2 interaction. Nature of the test: fluorescence anisotropy competition assay p53/hDM2. In kind it is binding. The source says:
At first the lower inhibitory potency of both HIF-1α794–826 and hybrid 2 in comparison to helix mimetic 1 (9.2(±0.9) μM) which we determined previously,[33] might seem counterintuitive. One explanation that might account for this observation is that there may be a non-specific component to PPI inhibition associated with the aromatic oligoamide helix mimetic 1 (supported in part by a non-unity Hill co-efficient for the curve fitting, a property not observed for 2). […] We therefore performed further biophysical analysis. Although we illustrated previously that inhibition of HIF-1α/p300 by 1 was specific to the scaffold and selective in comparison to the eIF4E/4G interaction,[33] we expanded the range of assays here. […] Thus, by adding native amino acid residues from the HIF-1α sequence to the core helix mimetic 1 in hybrid 2, the specificity and selectivity of binding towards target interactions was improved.
Fig. 3 Biophysical screening of helix mimetic 1 and hybrid 2 to profile selectivity; FA competition data for inhibition of p53/hDM2.

Test [5] has as its target T2, p300. Nature of the test: fluorescence anisotropy direct binding to p300. More on the design: made in house. To be noted: fluorescein-labelled conjugates. On the procedure:
The hybrids 2 and 3a–c were then tested in a previously described fluorescence anisotropy p300/HIF-1α competition and p300 binding assays respectively (Fig. 2a).[33]
Fig. 2 Biophysical screening of HIF-1α peptides and hybrids, HIF-1α794–826, 2 and 3a–c (a) fluorescence anisotropy (FA) competition data for inhibition of p300/FITC-HIF-1α C-TAD for HIF-1α794–826 and 2 (b) (FA) binding data for 3a–c to p300 (schematic structure shown below).
Binding assays and protein expression were carried out as previously reported. 2, 3
The helix 2-3 peptide and the helix 2-extended peptide were purchased from Proteogenix,
France and the sequences shown below.
(1 picture or pasted object on this page, not shown here)
Target sequence in this assay (Q09472 whole entry, species assumed): as the sequence (Q09472 whole entry, species assumed) above

Test [6] has as its target T2, p300. Nature of the test: fluorescence anisotropy. To be noted: cited from earlier work.
Target sequence in this assay (Q09472 2-2414): as the sequence (Q09472 2-2414) above
Test [7] has as its target HIF-1α C-TAD 794-826 (Homo sapiens) (UniProt Q16665). Briefly: fluorescence anisotropy. To be noted: cited from earlier work.

Read-outs that look alike come from different tables or passages of the source. Starred links: 1 amine or outer side, 2 acyl side, 3 side chain; linkers in the order of their positions; H or OH if unused. Non-standard residues stand in square brackets, D forms with d. Residues, ends and D or L forms follow the SMILES beside them. No end group written: not given here. *: point of attachment. PEG24 = NCCOCCOCCOCCOCCOCCOCCOCCOCCOCCOCCOCCOCCOCCOCCOCCOCCOCCOCCOCCOCCOCCOCCOCCOCCC(=O)O; FITC = O=C1OC2(c3ccc(O)cc3Oc3cc(O)ccc32)c2ccc(NC(=S)*)cc21; PEG12 = NCCOCCOCCOCCOCCOCCOCCOCCOCCOCCOCCOCCOCCC(=O)O; 4Abz(3-OiBu) = CC(C)COc1cc(C(=O)[*:2])ccc1N[*:1]; PEG8 = NCCOCCOCCOCCOCCOCCOCCOCCOCCC(=O)O; X1 = CC(C)Oc1cc(C(=O)[*:2])ccc1N[*:1]; Ahx = NCCCCCC(=O)O Where only a bound is given, the exact number is not on record here.

T1 sequence (Q09472 330-420 limits assumed): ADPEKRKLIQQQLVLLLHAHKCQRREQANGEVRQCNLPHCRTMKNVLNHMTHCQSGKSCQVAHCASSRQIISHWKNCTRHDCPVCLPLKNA
Chain of p300 (from UniProt Q09472) (Q09472 2-2414): as the sequence (Q09472 2-2414) above

Take “Ac-QLTSYDCEVNAPIQGSRNLLQ-NH 2 (Ac-QLTSYDCEVNAPIQGSRNLLQ-NH2) [HIF-1α794–815, peptide comprising the same residues as the peptidic region of hybrid 2]”: the IC50 in test [1] is more than 500000 nM. “FITC-HIF-1α794–826: FITC-labelled HIF-1α794–826 peptide ({FITC}-QLTSYDCEVNAPIQGSRNLLQGEELLRALDQVN; UniProt Q16665 794-826, looked up, fragment)”: the Kd (usually the concentration at which binding is half-saturated) in test [2] was 6.74 ± 0.54 µM. “HIF-1α794-826 794-826 (from UniProt Q16665)”: the IC50 in test [3] is 89 µM. On to `CC[C@H](C)[C@H](NC(=O)[C@@H]1CCCN1C(=O)[C@H](C)NC(=O)[C@H](CC(N)=O)NC(=O)[C@@H](NC(=O)[C@H](CCC(=O)O)NC(=O)[C@H](CO)NC(=O)[C@H](Cc1ccc(O)cc1)NC(=O)[C@H](CO)NC(=O)[C@@H](NC(=O)[C@H](CC(C)C)NC(=O)[C@H](CCC(N)=O)NC(C)=O)[C@@H](C)O)C(C)C)C(=O)N[C@@H](CCC(N)=O)C(=O)N[C@@H](CO)C(=O)N[C@@H](CCCNC(=N)N)C(=O)N[C@@H](CC(N)=O)C(=O)N[C@@H](CC(C)C)C(=O)N[C@@H](CC(C)C)C(=O)N[C@@H](CCC(N)=O)C(=O)NCC(=O)NCC(=O)Nc1ccc(C(=O)Nc2ccc(C(=O)Nc3ccc(C(=O)NCC(=O)O)cc3OC(C)C)cc2OCC(C)C)cc1OCC(C)C` [compound 2] (Ac-QLTSYSEVNAPIQSRNLLQGG[4Abz(3-OiBu)][4Abz(3-OiBu)][X1]G-OH), for which the IC50 in test [4] is more than 100 µM.

With `CC(C)C[C@H](NC(=O)[C@H](C)NC(=O)[C@H](CCCNC(=N)N)NC(=O)[C@H](CC(C)C)NC(=O)[C@H](CC(C)C)NC(=O)[C@H](CCC(=O)O)NC(=O)[C@H](CCC(=O)O)NC(=O)CCOCCOCCOCCOCCOCCOCCOCCOCCNC(=O)[C@H](C)NC(=O)[C@H](CC(N)=O)NC(=O)[C@@H](NC(=O)[C@H](CCC(=O)O)NC(=O)[C@H](CS)NC(=O)[C@H](CC(=O)O)NC(=O)[C@H](Cc1ccc(O)cc1)NC(=O)[C@H](CO)NC(=O)[C@@H](NC(=O)[C@H](CC(C)C)NC(=O)[C@H](CCC(N)=O)NC(=O)CCCCCNC(=S)Nc1ccc2c(c1)C(=O)OC21c2ccc(O)cc2Oc2cc(O)ccc21)[C@@H](C)O)C(C)C)C(=O)N[C@@H](CC(=O)O)C(=O)N[C@@H](CCC(N)=O)C(=O)N[C@H](C(=O)N[C@@H](CC(N)=O)C(N)=O)C(C)C` [3a] ({FITC-Ahx}-QLTSYDCEVNA[PEG8]EELLRALDQVN-NH2), the Kd in test [5] was more than 200 µM.

Turning to “FITC-HIF-1α794-826 794-826 (from UniProt Q16665)”, the Kd in test [6] is 6.74 µM. As to p300 (from UniProt Q09472), in test [7], the Kd is 6.74 µM. For the compound `CC(C)C[C@H](NC(=O)[C@H](C)NC(=O)[C@H](CCCNC(=N)N)NC(=O)[C@H](CC(C)C)NC(=O)[C@H](CC(C)C)NC(=O)[C@H](CCC(=O)O)NC(=O)[C@H](CCC(=O)O)NC(=O)CCOCCOCCOCCOCCOCCOCCOCCOCCOCCOCCOCCOCCOCCOCCOCCOCCOCCOCCOCCOCCOCCOCCOCCOCCNC(=O)[C@H](C)NC(=O)[C@H](CC(N)=O)NC(=O)[C@@H](NC(=O)[C@H](CCC(=O)O)NC(=O)[C@H](CS)NC(=O)[C@H](CC(=O)O)NC(=O)[C@H](Cc1ccc(O)cc1)NC(=O)[C@H](CO)NC(=O)[C@@H](NC(=O)[C@H](CC(C)C)NC(=O)[C@H](CCC(N)=O)NC(=O)CCCCCNC(=S)Nc1ccc2c(c1)C(=O)OC21c2ccc(O)cc2Oc2cc(O)ccc21)[C@@H](C)O)C(C)C)C(=O)N[C@@H](CC(=O)O)C(=O)N[C@@H](CCC(N)=O)C(=O)N[C@H](C(=O)N[C@@H](CC(N)=O)C(N)=O)C(C)C` [3c] ({FITC-Ahx}-QLTSYDCEVNA[PEG24]EELLRALDQVN-NH2), binding in test [5] was characterised by a dissociation constant (Kd) of 144 µM. Turning to “Ac-LGQSMDESGLPQLTSYDCEVNAPIQGSRNLLQGEELLRALDQVN-NH2 [HIF-1α782–826, 42 residue HIF-1α C-TAD peptide]”, in test [1], the IC50 is 590 nM. For the compound `CC(C)C[C@H](NC(=O)[C@H](C)NC(=O)[C@H](CCCNC(=N)N)NC(=O)[C@H](CC(C)C)NC(=O)[C@H](CC(C)C)NC(=O)[C@H](CCC(=O)O)NC(=O)[C@H](CCC(=O)O)NC(=O)CCOCCOCCOCCOCCOCCOCCOCCOCCOCCOCCOCCOCCNC(=O)[C@H](C)NC(=O)[C@H](CC(N)=O)NC(=O)[C@@H](NC(=O)[C@H](CCC(=O)O)NC(=O)[C@H](CS)NC(=O)[C@H](CC(=O)O)NC(=O)[C@H](Cc1ccc(O)cc1)NC(=O)[C@H](CO)NC(=O)[C@@H](NC(=O)[C@H](CC(C)C)NC(=O)[C@H](CCC(N)=O)NC(=O)CCCCCNC(=S)Nc1ccc2c(c1)C(=O)OC21c2ccc(O)cc2Oc2cc(O)ccc21)[C@@H](C)O)C(C)C)C(=O)N[C@@H](CC(=O)O)C(=O)N[C@@H](CCC(N)=O)C(=O)N[C@H](C(=O)N[C@@H](CC(N)=O)C(N)=O)C(C)C` [3b] ({FITC-Ahx}-QLTSYDCEVNA[PEG12]EELLRALDQVN-NH2), in test [5], the Kd was more than 200 µM. Regarding “HIF-1α794-815 794-815 (from UniProt Q16665)”, the IC50 in test [3] was more than 500 µM.
